{"source": "patent US20240034792A1", "about": "(HARBOUR BIOMED SHANGHAI, published 2024)", "binders": {"B1": {"name": "PR002481 (antibody, human IgG1, V domains shown)", "VH": "EVQLVETGGGLIQPGGSLRLSCAASGFNVSSHYMSWVRQAPGKGREWVSIIDGGGSTYYADSVKGRFTISRDNSKNRLYLQMNSLRAEDTAMYYCARATAVAEKNGYNYPFNYWGQGTLVTVSS", "notes": "Heavy-chain-only antibody (HCAb), human IgG1 Fc; two heavy chains, no light chain; also called R4004P556D1; anti-PD1 R4004P556D1 HCAb hG1"}}, "key": {"[1]": {"biological_target": "T1, Human PD-1 expressed on CHO-K1 cells (CHO-K1/hPD-1) (human, UniProt Q15116 25-288)", "T1 construct": "whole, on cells; also called CHO-K1 cells overexpressing human PD-1", "T1 sequence (Q15116 25-288)": "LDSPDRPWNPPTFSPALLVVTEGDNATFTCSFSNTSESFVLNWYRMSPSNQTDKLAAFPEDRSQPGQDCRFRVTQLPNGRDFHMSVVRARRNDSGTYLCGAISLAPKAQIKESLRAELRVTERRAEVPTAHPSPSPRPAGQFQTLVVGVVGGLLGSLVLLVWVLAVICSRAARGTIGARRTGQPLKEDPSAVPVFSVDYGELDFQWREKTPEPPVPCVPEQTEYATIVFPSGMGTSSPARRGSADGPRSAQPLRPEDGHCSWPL", "experiment": "FACS, CHO-K1/hPD-1 cells"}, "[2]": {"biological_target": "T1, Human PD-1 expressed on CHO-K1 cells …", "experiment": "FACS, CHO-K1/hPD-1 cells", "remark": "listed apart in the source"}, "[3]": {"biological_target": "T2, Human PD-1-His protein (ACROBiosystems, # PD1-H5221) (human, UniProt Q15116 25-167)", "T2 construct": "Bought reagent, coated on the ELISA plate; also called human PD-1 protein; human PD-1 antigen; not shown: His tag", "T2 sequence (Q15116 25-167 limits assumed)": "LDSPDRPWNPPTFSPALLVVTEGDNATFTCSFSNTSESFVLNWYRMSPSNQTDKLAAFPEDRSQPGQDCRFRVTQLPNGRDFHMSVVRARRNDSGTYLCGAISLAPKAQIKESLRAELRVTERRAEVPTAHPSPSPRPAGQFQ", "experiment": "ELISA, plate-coated human PD-1-His", "procedure": "Human PD-1-His protein (ACROBiosystems, # PD1-H5221) was diluted to 2 μg/mL with PBS, added to a 96-well plate (Corning, cat#9018) at 100 μL/well, and incubated at 4° C. overnight. After the liquid was discarded, the plate was washed 3 times with PBST buffer (pH 7.4, containing 0.05% Tween-20), and 250 μL of 2% BSA blocking buffer was added. The plate was incubated at 37° C. for 1 h. The blocking buffer was discarded, and the plate was washed 3 times with PBST buffer (pH 7.4, containing 0.05% Tween-20). The test antigen-binding protein was 5-fold diluted in sequence at an initial concentration of 100 nM for a total of 8-10 concentration gradients, and added at 100 μL/well. The plate was incubated at 37° C. for 1 h. An isotype antibody was taken as a control. After the plate was washed 3 times with PBST buffer (pH 7.4, containing 0.05% Tween-20), a 4000-fold diluted goat anti-human HRP secondary antibody (Invitrogen, #A18805) was added. The plate was incubated away from light at 37° C. for 1 h. After the plate was washed 3 times with PBST buffer (pH 7.4, containing 0.05% Tween-20), TMB (Biopanda, # TMB-S-003) was added at 100 μL/well. The plate was left away from light at room temperature for about 5 min. The reactions were terminated by adding 50 μL of stop buffer (BBI life sciences, #E661006-0200) to each well, and the absorbance values at 450 nm (OD450) were measured using a microplate reader (PerkinElemer, #Enspire). The half maximal effective concentration (EC₅₀) was calculated from the measurement results."}, "[4]": {"biological_target": "T3, Cynomolgus monkey PD-1-His protein (AcroBiosystems, # PD1-05223) (cynomolgus monkey, UniProt B0LAJ3 25-170)", "T3 construct": "Bought reagent, coated on the ELISA plate; also called cynomolgus monkey PD-1 protein", "T3 sequence (B0LAJ3 entry or part of it limits assumed)": "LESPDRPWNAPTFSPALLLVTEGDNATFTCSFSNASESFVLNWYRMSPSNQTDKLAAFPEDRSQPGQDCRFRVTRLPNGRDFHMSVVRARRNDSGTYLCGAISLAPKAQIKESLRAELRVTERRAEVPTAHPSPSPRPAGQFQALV", "experiment": "ELISA, plate-coated cynomolgus monkey PD-1-His", "procedure": "Cynomolgus monkey PD-1-His protein (AcroBiosystems, # PD1-05223) was diluted to 2 μg/mL with PBS, added to a 96-well plate (Corning, #9018) at 100 μL/well, and incubated at 4° C. overnight. After the liquid was discarded, the plate was washed 3 times with PBST, blocked by adding 250 μL of 2% BSA, and incubated at room temperature for 1 h. The blocking buffer was discarded, and the plate was washed 3 times with PBST buffer (pH 7.4, containing 0.05% Tween-20). The test antigen-binding protein was diluted to 5 μg/mL, and added at 100 μL/well. The plate was incubated at 37° C. for 1 h. After the plate was washed 3 times with PBST buffer (pH 7.4, containing 0.05% Tween-20), a 4000-fold diluted goat anti-human HRP secondary antibody (Invitrogen, #A18805) was added. The plate was incubated at 37° C. for 1 h. After the plate was washed, TMB (Biopanda, # TMB-S-003) was added at 100 μL/well. The plate was left away from light at room temperature for 5 min. The reactions were terminated by adding 50 μL of stop buffer (BBI life sciences, #E661006-0200) to each well, and the absorbance values at 450 nm (OD450) were measured using a microplate reader (PerkinElemer, #Enspire)."}, "[5]": {"biological_target": "T4, Human PD-1 protein with histidine and avi tags (ACRO Biosystems, PD1-H82E4) (human, UniProt Q15116 25-167)", "T4 construct": "Captured on streptavidin (SA) sensors in the BLI assay; not shown: histidine and avi tags", "T4 sequence (Q15116 25-167 limits assumed)": "as the sequence (Q15116 25-167 limits assumed) above", "experiment": "BLI (Octet Red96e), PD-1 captured on SA sensor, 1:1 local fit", "procedure": "Human PD-1 proteins with histidine and avi tags were purchased from the manufacturer ACRO Biosystems (Cat#: PD1-H82E4), and the assay buffer was 1× kinetics buffer (diluted from 10× kinetics buffer (ForteBio, Cat#: 18-1105)) for kinetic assay and dilution of antigens and antibodies. The binding kinetics between the antigen and the antibody was analyzed by the biolayer interferometry (BLI) technique using an Octet molecular interaction analyzer (ForteBio, model: Octet Red96e).\nWhen the binding kinetics between the antigen and the antibody was determined, the rotation speed of the sensor was set at 1000 rpm/min. The eight SA sensors placed in a column were first equilibrated in an assay buffer for 10 min and then used to capture PD-1 at a capture height of 0.5 nm. Thereafter, the SA sensors were equilibrated in the assay buffer for 100 s, and then were associated with each antibody diluted to a single concentration and with a row of blank buffer wells for 180 s, followed by dissociation for 600 s. A new column of SA sensors were used in each cycle.\nWhen data analysis was performed using Octet Data Analysis software (Fortebio, version 11.0), the reference signals were subtracted by a single reference mode (reference well), the data were fitted by a “1:1 Local fitting” method, and the kinetic parameters of the binding of the antigen to the antibody were calculated to obtain kon (1/Ms) values, kdis (1/s) values and KD (M) values."}}, "note": "Read-outs that look alike come from different tables or passages of the source.", "data": [{"binder": "B1", "values": [{"measurement": "EC50", "setting": "[1]", "result": 7.99, "unit": "nM"}, {"measurement": "Maximum (MFI)", "setting": "[1]", "result": "2.63e+06"}, {"measurement": "EC50", "setting": "[2]", "result": 8.18, "unit": "nM"}, {"measurement": "Maximum (MFI)", "setting": "[2]", "result": "2.75e+06"}, {"measurement": "EC50", "setting": "[3]", "result": 0.043, "unit": "nM"}, {"measurement": "OD Maximum", "setting": "[3]", "result": 2.85}, {"measurement": "EC50", "setting": "[4]", "result": 0.031, "unit": "nM"}, {"measurement": "OD Maximum", "setting": "[4]", "result": 3.06}, {"measurement": "Kd", "setting": "[5]", "result": 77, "unit": "nM"}, {"measurement": "koff", "setting": "[5]", "result": 0.000768, "unit": "s⁻¹"}, {"measurement": "kon", "setting": "[5]", "result": 9970, "unit": "M⁻¹ s⁻¹"}]}]}
